According to patent US9308238B2, “Compositions and methods for modulating EMT and uses thereof” (Whitehead Institute for Biomedical Research, priority 2010, dated 2016):

B1: SFRP1: Recombinant human SFRP1 protein (R&D Systems), secreted decoy receptor binding canonical and non-canonical Wnt ligands (protein, UniProt Q8N474 32-314, looked up)
Secreted frizzled-related …: SEYDYVSFQSDIGPYQSGRFYTKPPQCVDIPADLRLCHNVGYKKMVLPNLLEHETMAEVKQQASSWVPLLNKNCHAGTQVFLCSLFAPVCLDRPIYPCRWLCEAVRDSCEPVMQFFGFYWPEMLKCDKFPEGDVCIAMTPPNATEASKPQGTTVCPPCDNELKSEAIIEHLCASEFALRMKIKEVKKENGDKKIVPKKKKPLKLGPIKKKDLKKLVLYLKNGADCPCHQLDNLSHHFLIMGRKVKSQYLLTAIHKWDKKNKEFKNFMKKMKNHECPTFQSVFK
B2: BMP4: Recombinant BMP4 protein obtained from Stemgent (protein, UniProt P12644 293-408, looked up)
Bone morphogenetic protein 4: SPKHHSQRARKKNKNCRRHSLYVDFSDVGWNDWIVAPPGYQAFYCHGDCPFPLADHLNSTNHAIVQTLVNSVNSSIPKACCVPTELSAISMLYLDEYDKVVLKNYQEMVVEGCGCR

Key:
HTwist and MSP cells = assay: Boyden chamber migration assay, HTwist and MSP cells; type: cell-based, human
Method: FIGS. 3A-3E. Autocrine Signaling controls migration and mammosphere formation.
FIGS. 10A-10E. […] (FIG. 10C) Mammosphere assay: HTwist cells were treated daily during mammosphere formation (5 days) with proteins as described in (B); *control vs. single treatment, p<1×10^−5, **single vs. double-treatment, p<0.01, n(mammospheres)/1000 cells, n=6, (FIG. 10D) Migration Assay: HTwist and MSP cells were seeded into Boyden Chambers in the presence of TGF-beta Receptor I inhibitors A83-01 and SB431542 (SB43, both at 10 μM). (FIG. 10E) Mammosphere Assay: HTwist and MSP were treated daily during mammosphere formation (5 days) with BMP4 (0.5 μg/ml), SB431542 (10 μM) or a combination of both, n(mammospheres)/1000 cells, n=6.
Migration and invasion assays. For migration assays, 2×10^4 cells were seeded into 24-well cell culture inserts with 8-μm pores (Boyden Chambers, BD Falcon). For invasion assays, matrigel-coated inserts (BD Falcon) were used. After 12-48 hr, the cells on the upper surface of the filters were removed with a cotton swab. For visualization, cells on lower filter surfaces were fixed and stained with a Diff-Quick staining kit (Dade Behring).

MSP-RAS cells = assay: Orthotopic tumor formation and metastasis after ex vivo treatment of MSP-RAS tumorspheres; type: in vivo, mice; details: for reduction in lung metastases / reduction of metastatic foci in the liver: foci normalized by primary tumor weight, ex vivo treatment; for reduction of tumor weight / reduction of metastatic foci in the liver: on average
Method: FIGS. 4A-4G. Autocrine Signaling controls tumorigenicity and metastasis of MSP-RAS cells. (FIG. 4A) Migration assay: RAS-transformed MSP (MSP-RAS) were seeded in Boyden Chamber migration assays and recombinant SFRP1 (1 μg/ml) and BMP4 protein (0.5 μg/ml) were added; *control vs. single treatment, p<1×10^−8, **single vs. double treatment with SFRP1 and BMP4 (S+B), p<1×10^−4, n=3. (FIG. 4B) Tumorsphere assay: SFRP1 (1 μg/ml) and BMP4 protein (0.5 μg/ml) were added daily during primary sphere formation (5 days), spheres were dispersed and seeded for secondary sphere formation in the absence of further treatment; #control primary vs. secondary sphere formation, p=0.001; *control vs. single treatment, p<1×10^−4, **single vs. double treatment with SFRP1 and BMP4 (S+B), p<0.01, n(tumorspheres)/1000 cells, n=6. (FIG. 4C) Flow cytometry: CD44 and CD24 cell-surface markers of dissociated primary tumorspheres as described in (B). (FIG. 4D) Orthotopic tumor formation after ex vivo treatment during tumorsphere formation: primary tumorspheres as generated in (B) were pooled, dissociated and 1.0×10^5 cells were implanted in the fat pads of mice; shown are tumor weight and incidence, *indicates absence of tumor, n=5 mice/group. (FIG. 4E) Lung metastasis: fluorescence microscopy images of the major left lung lobe showing GFP-expressing metastatic nodules and quantification of the number of lung surface metastases; *control vs. SFRP1 treatment, p<0.05, **SFRP1 vs. BMP4 or double treatment (S+B), p<0.05, n=5 mice/group. (FIG. 4F) Liver metastasis: fluorescence microscopy images of the liver surface showing GFP-expressing micro-metastatic nodules after implantation of cells as described in (D) and quantification: 5 fields of liver surface were counted per mouse, *control vs. single treatment, p<0.05, **single vs. double treatment (S+B), p<0.05, n=5 mice/group. (FIG. 4G) Tumorigenicity assay: MSP-RAS cells suspended in PBS containing SFRP1 (1 μg/ml), BMP4 (0.5 μg/ml), and a combination of both (S+B) were implanted subcutaneously in mice at indicated cell numbers. In addition, 20 μl of PBS or PBS with proteins at indicated doses was injected peri-tumorally at 1, 2, 3 and 7 days after implanting the MSP-RAS cells.
We also wished to determine whether in vitro exposure to SFRP1 and BMP4 influenced subsequent in vivo behavior of MSP-RAS cells. For this purpose, we prepared single-cell suspensions from primary control MSP-RAS tumorspheres or from the residual tumorspheres that had formed during a 5 day in vitro treatment with SFRP1, BMP4 or a combination of both. Following injection of these populations into the mammary fat pads of mice, we noted that the tumors that originated from mammospheres of MSP-RAS cells that had been exposed ex vivo to either SFRP1, BMP4 or a combination of both were reduced in weight by 3-fold on average (FIG. 4D). However, we only observed a modest reduction in tumor incidence for the BMP4 and combination-treated groups (30%, FIG. 4D).
Animal studies. All research involving animals complied with protocols approved by the MIT Committee on Animal Care. For tumorigenicity studies, indicated numbers of cells in 100 μL of Matrigel (BD Biosciences) diluted 1:4 in PBS were injected subcutaneously in the left and right flanks of age-matched female nude (nu/nu) mice. Mice were sacrificed and necropsied after 10 weeks. For orthotopic injections, 1×10^5 cells suspended in PBS were injected into each of the two inguinal mammary glands of age-matched female NOD-SCID mouse. Mice were sacrificed after 10 weeks or when tumors reached a diameter >1 cm. Lung surface metastases were counted using a fluorescent microscope within 3 hr of specimen isolation.

[1] = 5 day ex vivo treatment, mammary fat pad injection

| Molecule | reduction of migration (HTwist and MSP cells; at the highest concentration) [fold] | reduction in lung metastases (MSP-RAS cells) [fold] | reduction of tumor weight (MSP-RAS cells; [1]) [fold] | reduction of metastatic foci in the liver (MSP-RAS cells) [fold] | maximum reduction of migration (HTwist and MSP cells; HTwist or MSP cells) [fold] | reduction in tumor incidence (MSP-RAS cells; [1]) [%] |
| --- | --- | --- | --- | --- | --- | --- |
| B1 | 20 | 2 | 3 | 2.5 | – | – |
| B2 | – | 7.5 | 3 | 5 | ≤ 2 | 30 |
